Several values for one entry are separate records, joined by “and”; a condition that tells them apart may be missing. Equal values may be shown once.
Details: Bos taurus, pH 7, Absorbance, Sodium phosphate 100 mM

Sequence of Cytochrome b wild type, P00157 (P00157 whole entry): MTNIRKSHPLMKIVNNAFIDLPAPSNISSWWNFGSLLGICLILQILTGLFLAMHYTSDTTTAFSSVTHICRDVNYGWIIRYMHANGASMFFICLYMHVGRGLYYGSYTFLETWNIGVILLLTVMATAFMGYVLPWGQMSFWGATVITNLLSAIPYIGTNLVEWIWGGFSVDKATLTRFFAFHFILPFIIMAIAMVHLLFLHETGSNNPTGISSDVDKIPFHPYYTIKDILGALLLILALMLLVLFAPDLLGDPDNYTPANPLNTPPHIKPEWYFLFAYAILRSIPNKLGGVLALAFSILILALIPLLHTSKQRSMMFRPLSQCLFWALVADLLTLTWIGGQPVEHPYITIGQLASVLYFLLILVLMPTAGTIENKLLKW

Substance: Cytochrome b wild type, P00157
- denaturant midpoint (higher = more stable) (25 °C, Urea): 6.8 M
- unfolding enthalpy (van 't Hoff) (Thermal): 90.1 kcal/mol and 85.6 kcal/mol

Reference: FireProtDB (doi:10.1016/s0301-4622(99)00119-2)
